Laboratory results taken from publication PMC3421062.

What was measured:
[1] = target: N130-V5 recombinant protein (NAC1 BTB domain only) (UniProt Q96RE7); assay: pull-down
[2] = target: NAC1-V5 recombinant protein (UniProt Q96RE7); assay: pull-down

Kd [1]: 520 nM | Kd [2]: 780 nM
Substance: purified recombinant actin (Cytoskeleton Inc.) (from UniProt P60709 1-375) (natural protein)
